Laboratory results: patent US20120263701

Columns and labels:
[1] = test system: FIX/cFXI3/XTEN (pCW0737)
[2] = test system: FIX/cFXI2/XTEN (pCW0736)
[3] = test system: FIX/cFXI1/XTEN (pCW0735)
[4] = molecular target: T1, soluble tissue factor, P13726
T1 chain: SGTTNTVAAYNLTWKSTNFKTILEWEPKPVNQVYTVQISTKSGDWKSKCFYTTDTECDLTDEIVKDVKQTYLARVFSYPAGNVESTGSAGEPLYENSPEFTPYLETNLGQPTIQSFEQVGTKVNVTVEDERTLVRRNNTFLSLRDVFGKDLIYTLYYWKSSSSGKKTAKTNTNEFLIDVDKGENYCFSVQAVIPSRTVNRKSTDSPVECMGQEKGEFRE

| Molecule | Concentration by Activity (ng/ml), aPTT based factor assay [1] [ng/mL] | Fraction Active (activity / ELISA) [1] [%] | clotting activity against FIX-XTEN without cleavage site (aPTT based factor assay) [1] | Concentration by Activity (ng/ml), aPTT based factor assay [2] [ng/mL] | Fraction Active (activity / ELISA) [2] [%] | clotting activity against FIX-XTEN without cleavage site (aPTT based factor assay) [2] | Concentration by Activity (ng/ml), aPTT based factor assay [3] [ng/mL] | Fraction Active (activity / ELISA) [3] [%] | clotting activity against FIX-XTEN without cleavage site (aPTT based factor assay) [3] | soluble tissue factor (sTF) induced clotting (Stago STA-Clot FVIIa activity assay) [4] |
| --- | --- | --- | --- | --- | --- | --- | --- | --- | --- | --- |
| FXI protease | 11 | 40 | enhanced the clotting activity by greater than 30-fold | 9 | 34 | enhanced the clotting activity by greater than 30-fold | 7 | 30 | enhanced the clotting activity by greater than 30-fold | – |
| FVIIa-AE288 (protein) chain 1: ANAFLEELRPGSLERECKEEQCSFEEAREIFKDAERTKLFWISYSDGDQCASSPCQNGGSCKDQLQSYICFCLPAFEGRNCETHKDDQLICVNENGGCEQYCSDHTGTKRSCRCHEGYSLLADGVSCTPTVEYPCGKIPILEKRNASKPQGR chain 2: IVGGKVCPKGECPWQVLLLVNGAQLCGGTLINTIWVVSAAHCFDKIKNWRNLIAVLGEHDLSEHDGDEQSRRVAQVIIPSTYVPGTTNHDIALLRLHQPVVLTDHVVPLCLPERTFSERTLAFVRFSLVSGWGQLLDRGATALELMVLNVPRLMTQDCLQQSRKVGDSPNITEYMFCAGYSDGSKDSCKGDSGGPHATHYRGTWYLTGIVSWGQGCATVGHFGVYTRVSQYIEWLQKLMRSEPRPGVLLRAPFPGSPGTSESATPESGPGSEPATSGSETPGTSESATPESGPGSEPATSGSETPGTSESATPESGPGTSTEPSEGSAPGSPAGSPTSTEEGTSESATPESGPGSEPATSGSETPGTSESATPESGPGSPAGSPTSTEEGSPAGSPTSTEEGTSTEPSEGSAPGTSESATPESGPGTSESATPESGPGTSESATPESGPGSEPATSGSETPGSEPATSGSETPGSPAGSPTSTEEGTSTEPSEGSAPGTSTEPSEGSAPGSEPATSGSETPGTSESATPESGPGTSTEPSEGSAPGSSS | – | – | – | – | – | – | – | – | – | an activity equivalent to 112 U/ml of FVIIa activity |
